Measured values published in the supplement of paper PMC5998384.

Assays:
HeLa Kyoto [1] = test: solubility in G1/S (NP-40 vs SDS abundance) (log2 ratio); higher = more soluble; details: cell cycle stage: G1/S
HeLa Kyoto [2] = test: solubility change mitosis vs G1/S (difference of NP-40 vs SDS log2 ratios) (log2 ratio difference); higher = more soluble in mitosis
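Wherever solubility change mitosis vs G1/S (difference of NP-40 vs SDS log2 ratios) is given: synchronized HeLa Kyoto cells (double thymidine block for G1/S, nocodazole release for mitosis), protein amounts in NP-40 versus SDS lysates quantified by mass spectrometry, three biological replicates.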
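Wherever solubility in G1/S (NP-40 vs SDS abundance) is given: HeLa Kyoto cells arrested at G1/S by double thymidine block, proteins quantified by TMT10plex mass spectrometry in mild NP-40 versus SDS extracts, three biological replicates.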

Sequence: MDEEPERTKRWEGGYERTWEILKEDESGSLKATIEDILFKAKRKRVFEHHGQVRLGMMRHLYVVVDGSRTMEDQDLKPNRLTCTLKLLEYFVEEYFDQNPISQIGIIVTKSKRAEKLTELSGNPRKHITSLKEAVDMTCHGEPSLYNSLSMAMQTLKHMPGHTSREVLIIFSSLTTCDPSNIYDLIKTLKAAKIRVSVIGLSAEVRVCTVLARETGGTYHVILDESHYKELLTHHLSPPPASSSSECSLIRMGFPQHTIASLSDQDAKPSFSMAHLDGNTEPGLTLGGYFCPQCRAKYCELPVECKICGLTLVSAPHLARSYHHLFPLDAFQEIPLEEYNGERFCYGCQGELKDQHVYVCAVCQNVFCVDCDVFVHDSLHCCPGCIHKIPAPSGV [GTF2H2C]
- solubility in G1/S (log2) (HeLa Kyoto [1]): -0.398
- solubility change mitosis (log2) (HeLa Kyoto [2]): 0.181

Sequence: MDEKTKKAEEMALSLTRAVAGGDEQVAMKCAIWLAEQRVPLSVQLKPEVSPTQDIRLWVSVEDAQMHTVTIWLTVRPDMTVASLKDMVFLDYGFPPVLQQWVIGQRLARDQETLHSHGVRQNGDSAYLYLLSARNTSLNPQELQRERQLRMLEDLGFKDLTLQPRGPLEPGPPKPGVPQEPGRGQPDAVPEPPPVGWQCPGCTFINKPTRPGCEMCCRARPEAYQVPASYQPDEEERARLAGEEEALRQYQQRKQQQQEGNYLQHVQLDQRSLVLNTEPAECPVCYSVLAPGEAVVLRECLHTFCRECLQGTIRNSQEAEVSCPFIDNTYSCSGKLLEREIKALLTPEDYQRFLDLGISIAENRSAFSYHCKTPDCKGWCFFEDDVNEFTCPVCFHVNCLLCKAIHEQMNCKEYQEDLALRAQNDVAARQTTEMLKVMLQQGEAMRCPQCQIVVQKKDGCDWIRCTVCHTEICWVTKGPRWGPGGPGDTSGGCRCRVNGIPCHPSCQNCH [RBCK1]
- solubility in G1/S (log2) (HeLa Kyoto [1]): 0.08
- solubility change mitosis (log2) (HeLa Kyoto [2]): -0.0181

Sequence: MDEPPFSEAALEQALGEPCDLDAALLTDIEDMLQLINNQDSDFPGLFDPPYAGSGAGGTDPASPDTSSPGSLSPPPATLSSSLEAFLSGPQAAPSPLSPPQPAPTPLKMYPSMPAFSPGPGIKEESVPLSILQTPTPQPLPGALLPQSFPAPAPPQFSSTPVLGYPSPPGGFSTGSPPGNTQQPLPGLPLASPPGVPPVSLHTQVQSVVPQQLLTVTAAPTAAPVTTTVTSQIQQVPVLLQPHFIKADSLLLTAMKTDGATVKAAGLSPLVSGTTVQTGPLPTLVSGGTILATVPLVVDAEKLPINRLAAGSKAPASAQSRGEKRTAHNAIEKRYRSSINDKIIELKDLVVGTEAKLNKSAVLRKAIDYIRFLQHSNQKLKQENLSLRTAVHKSKSLKDLVSACGSGGNTDVLMEGVKTEVEDTLTPPPSDAGSPFQSSPLSLGSRGSGSGGSGSDSEPDSPVFEDSKAKPEQRPSLHSRGMLDRSRLALCTLVFLCLSCNPLASLLGARGLPSPSDTTSVYHSPGRNVLGTESRDGPGWAQWLLPPVVWLLNGLLVLVSLVLLFVYGEPVTRPHSGPAVYFWRHRKQADLDLARGDFAQAAQQLWLALRALGRPLPTSHLDLACSLLWNLIRHLLQRLWVGRWLAGRAGGLQQDCALRVDASASARDAALVYHKLHQLHTMGKHTGGHLTATNLALSALNLAECAGDAVSVATLAEIYVAAALRVKTSLPRALHFLTRFFLSSARQACLAQSGSVPPAMQWLCHPVGHRFFVDGDWSVLSTPWESLYSLAGNPVDPLAQVTQLFREHLLERALNCVTQPNPSPGSADGDKEFSDALGYLQLLNSCSDAAGAPAYSFSISSSMATTTGVDPVAKWWASLTAVVIHWLRRDEEAAERLCPLVEHLPRVLQESERPLPRAALHSFKAARALLGCAKAESGPASLTICEKASGYLQDSLATTPASSSIDKAVQLFLCDLLLVVRTSLWRQQQPPAPAPAAQGTSSRPQASALELRGFQRDLSSLRRLAQSFRPAMRRVFLHEATARLMAGASPTRTHQLLDRSLRRRAGPGGKGGAVAELEPRPTRREHAEALLLASCYLPPGFLSAPGQRVGMLAEAARTLEKLGDRRLLHDCQQMLMRLGGGTTVTSS [SREBF1]
- solubility in G1/S (log2) (HeLa Kyoto [1]): -0.139
- solubility change mitosis (log2) (HeLa Kyoto [2]): -0.263

Sequence: MDHTDNELQGTNSSGSLGGLDVRRRIPIKLISKQANKAKPAPRTQRTINRMPAKAPPGDEEGFDYNEEERYDCKGGELFANQRRFPGHLFWDFQINILGEKDDTPVHFCDKCGLPIKIYGRMIPCKHVFCYDCAILHEKKGDKMCPGCSDPVQRIEQCTRGSLFMCSIVQGCKRTYLSQRDLQAHINHRHMRAGKPVTRASLENVHPPIAPPPTEIPERFIMPPDKHHMSHIPPKQHIMMPPPPLQHVPHEHYNQPHEDIRAPPAELSMAPPPPRSVSQETFRISTRKHSNLITVPIQDDSNSGAREPPPPAPAPAHHHPEYQGQPVVSHPHHIMPPQQHYAPPPPPPPPISHPMPHPPQAAGTPHLVYSQAPPPPMTSAPPPITPPPGHIIAQMPPYMNHPPPGPPPPQHGGPPVTAPPPHHYNPNSLPQFTEDQGTLSPPFTQPGGMSPGIWPAPRGPPPPPRLQGPPSQTPLPGPHHPDQTRYRPYYQ [CBLL1]
- solubility in G1/S (log2) (HeLa Kyoto [1]): 0.175
- solubility change mitosis (log2) (HeLa Kyoto [2]): -0.286

Sequence: MDIAIHHPWIRRPFFPFHSPSRLFDQFFGEHLLESDLFPTSTSLSPFYLRPPSFLRAPSWFDTGLSEMRLEKDRFSVNLDVKHFSPEELKVKVLGDVIEVHGKHEERQDEHGFISREFHRKYRIPADVDPLTITSSLSSDGVLTVNGPRKQVSGPERTIPITREEKPAVTAAPKK [CRYAB]
- solubility in G1/S (log2) (HeLa Kyoto [1]): -0.171
- solubility change mitosis (log2) (HeLa Kyoto [2]): 0.00397

Sequence: MDLVGVASPEPGTAAAWGPSKCPWAIPQNTISCSLADVMSEQLAKELQLEEEAAVFPEVAVAEGPFITGENIDTSSDLMLAQMLQMEYDREYDAQLRREEKKFNGDSKVSISFENYRKVHPYEDSDSSEDEVDWQDTRDDPYRPAKPVPTPKKGFIGKGKDITTKHDEVVCGRKNTARMENFAPEFQVGDGIGMDLKLSNHVFNALKQHAYSEERRSARLHEKKEHSTAEKAVDPKTRLLMYKMVNSGMLETITGCISTGKESVVFHAYGGSMEDEKEDSKVIPTECAIKVFKTTLNEFKNRDKYIKDDFRFKDRFSKLNPRKIIRMWAEKEMHNLARMQRAGIPCPTVVLLKKHILVMSFIGHDQVPAPKLKEVKLNSEEMKEAYYQTLHLMRQLYHECTLVHADLSEYNMLWHAGKVWLIDVSQSVEPTHPHGLEFLFRDCRNVSQFFQKGGVKEALSERELFNAVSGLNITADNEADFLAEIEALEKMNEDHVQKNGRKAASFLKDDGDPPLLYDE [RIOK3]
- solubility in G1/S (log2) (HeLa Kyoto [1]): 0.0978
- solubility change mitosis (log2) (HeLa Kyoto [2]): -0.00535

Sequence: MDNAVDGLDKASIANSDGPTAGSQTPPFKRKGKLSTIGKIFKPWKWRKKKTSDKFRETSAVLERKISTRQSREELIRRGVLKELPDQDGDVTVNFENSNGHMIPIGEESTREENVVKSEEGNGSVSEKTPPLEEQAEDKKENTENHSETPAAPALPPSAPPKPRPKPKPKKSPVPPKGATAGASHKGDEVPPIKKNTKAPGKQAPVPPPKPASRNTTREAAGSSHSKKTTGSKASASPSTSSTSSRPKASKETVSSKAGTVGTTKGKRKTDKQPITSHLSSDTTTSGTSDLKGEPAETRVESFKLEQTVPGAEEQNTGKFKSMVPPPPVAPAPSPLAPPLPLEDQCITASDTPVVLVSVGADLPVSALDPSQLLWAEEPTNRTTLYSGTGLSVNRENAKCFTTKEELGKTVPQLLTPGLMGESSESFSASEDEGHREYQANDSDSDGPILYTDDEDEDEDEDGSGESALASKIRRRDTLAIKLGNRPSKKELEDKNILQRTSEEERQEIRQQIGTKLVRRLSQRPTTEELEQRNILKQKNEEEEQEAKMELKRRLSRKLSLRPTVAELQARRILRFNEYVEVTDSPDYDRRADKPWARLTPADKAAIRKELNEFKSTEMEVHEESRQFTRFHRP [PHACTR2]
- solubility in G1/S (log2) (HeLa Kyoto [1]): 0.45
- solubility change mitosis (log2) (HeLa Kyoto [2]): -0.286
